{
  "source": "patent US20180348220",
  "assay_in_all_cases": "flow",
  "conditions_in_all_cases": "whole cells, 4C",
  "key": {"[1]": {"system": "unidentified cell-surface target of MDA-MB-231 cells (Homo sapiens)"}, "[2]": {"system": "unidentified cell-surface target of MCF7 cells (Homo sapiens)"}, "[3]": {"system": "unidentified cell-surface target of T-47D cells (Homo sapiens)"}},
  "note": "pKd: −log10 of the molar value.",
  "data": [
    {"sequence": "CCCTCTTAAGTTTATAGNTGTCTTTTGGTNCCTAGGGCGTTTTAAAGGG [23-MB231b]", "values": [
      {"measurement": "pKd", "setting": "[1]; n = Ds, ±5.6", "result": 7.63}
    ]},
    {"sequence": "CCCTCTTAAGTTTATAGNTGTCTTTTGGTNCCTAGGGCGTTTTAAAGGGCGCGTAGCG [23-MB231bmh]", "values": [
      {"measurement": "pKd", "setting": "[1]; n = Ds, ±0.9", "result": 8.60}
    ]},
    {"sequence": "CCGCGCAGCCTGGGNTCTCTTTTAGTCNAGTTCAATCGCGCGG [07-MB231 (DsDs)]", "values": [
      {"measurement": "pKd", "setting": "[1]; n = Ds at 15 and 28, ±0.5", "result": 8.66}
    ]},
    {"sequence": "CCGCGCAGCCTGGGNTCTCTTTTAGTCNAGTTCAATCGCGCGGCGCGTAGCG [07-MB231mh]", "values": [
      {"measurement": "pKd", "setting": "[1]; n = Ds, ±0.3", "result": 8.70}
    ]},
    {"sequence": "CGGCGGTCNGTCGAACTGTNATGAGCGTGCCGCCGCGCGTAGCG [14A-MCF7mh (44DsDs)]", "values": [
      {"measurement": "pKd", "setting": "[2]; n = Ds, ±0.2", "result": 8.72}
    ]},
    {"sequence": "CGGTCNGTCGAACTGTNATGAGCGTGCCGCGCGTAGCG [14A-MCF7mh (38DsDs)]", "values": [
      {"measurement": "pKd", "setting": "[2]; n = Ds, ±0.02", "result": 8.59}
    ]},
    {"sequence": "CTCTAGTCNGTCGAACTGTNATGAGCGTGCTAGGGGG [14A-MCF7 (37DsDs)]", "values": [
      {"measurement": "pKd", "setting": "[2]; n = Ds, ±0.1, Mg2+", "result": 8.68}
    ]},
    {"sequence": "GCGGCGAAGATCACNACTAGGGGNCCTCGCCGC [03-T47D (DsDs)]", "values": [
      {"measurement": "pKd", "setting": "[3]; n = Ds at 15 and 24, ±6.7", "result": 7.04}
    ]},
    {"sequence": "GCGGCGAAGATCACNACTAGGGGNCCTCGCCGCCGCGTAGCG [03-T47Dmh]", "values": [
      {"measurement": "pKd", "setting": "[3]; n = Ds, ±3.0", "result": 7.41}
    ]},
    {"sequence": "GCGGTCNGTCGAACTGTNATGAGCGTGCCGCCGCGTAGCG [14A-MCF7mh (40DsDs)]", "values": [
      {"measurement": "pKd", "setting": "[2]; n = Ds, ±0.2", "result": 8.66}
    ]},
    {"sequence": "GGCCCGGCTGGCATGTANTCATGCCTCCTGGNCTAAGGTTTCTAAAGGGCC [08B-MCF7 (51DsDs)]", "values": [
      {"measurement": "pKd", "setting": "[2]; n = Ds at 18 and 32, ±0.3", "result": 8.49}
    ]},
    {"sequence": "GGCCCGGCTGGCATGTANTCATGCCTCCTGGNCTAAGGTTTCTAAAGGGCCCGCGTAGCG [08B-MCF7mh]", "values": [
      {"measurement": "pKd", "setting": "[2]; n = Ds, ±0.1 (printed 01)", "result": 8.60}
    ]},
    {"sequence": "GGCCCGGCTGGCGAAGCCTCCTGGNCTAAGGTTTCTAAAGGGCCCGCGTAGCG [08B-MCF7mh2]", "values": [
      {"measurement": "pKd", "setting": "[2]; n = Ds, ±0.1", "result": 8.64}
    ]},
    {"sequence": "GGCGCCAGGGGTGTTTGTGCCGTGAGNTGTGGCGCC [05-MB231GC]", "values": [
      {"measurement": "pKd", "setting": "[1]; n = Ds, ±0.2", "result": 8.66}
    ]},
    {"sequence": "GGCGCCAGGGGTGTTTGTGCCGTGAGNTGTGGCGCCCGCGTAGCG [05-MB231GCmh]", "values": [
      {"measurement": "pKd", "setting": "[1]; n = Ds, ±0.1", "result": 8.80}
    ]},
    {"sequence": "GGCGGTCNGTCGAACTGTNATGAGCGTGCCGCCCGCGTAGCG [14A-MCF7mh]", "values": [
      {"measurement": "pKd", "setting": "[2]; n = Ds, ±0.2, printed 14A-MCF7rmh", "result": 8.68}
    ]}
  ]
}
